Assay results from patent US20120316071A1 (published 2012).

T1: rHuman Erythropoietin R/Fc Chimera, CF (R&D Systems Cat#963-ER) (human, UniProt P19235 25-250)
T1 construct: Bought recombinant protein; also called EPO R; EPO R/Fc; Fc part of the bought chimera not given
T1 sequence (looked up): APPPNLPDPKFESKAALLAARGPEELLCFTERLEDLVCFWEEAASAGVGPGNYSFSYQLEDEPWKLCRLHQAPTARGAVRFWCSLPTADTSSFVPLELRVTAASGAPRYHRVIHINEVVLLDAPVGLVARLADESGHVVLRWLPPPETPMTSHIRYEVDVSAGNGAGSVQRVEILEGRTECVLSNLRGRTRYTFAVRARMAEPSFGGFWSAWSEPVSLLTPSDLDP

T2: rHuman Erythropoietin R/Fc Chimera, CF (R&D Systems Cat#963-ER) (human, UniProt P19235 25-250)
T2 construct: Bought recombinant protein; also called EPO R; EPO R/Fc; Fc part of the bought chimera not given
T2 sequence (looked up): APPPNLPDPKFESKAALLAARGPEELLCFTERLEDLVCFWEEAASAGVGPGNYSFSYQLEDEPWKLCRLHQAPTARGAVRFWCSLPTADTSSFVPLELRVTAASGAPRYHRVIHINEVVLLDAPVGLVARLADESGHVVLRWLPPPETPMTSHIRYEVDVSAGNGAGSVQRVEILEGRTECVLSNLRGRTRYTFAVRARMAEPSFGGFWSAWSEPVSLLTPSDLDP


Key:
[1] = molecular target: T3, rHuman Notch-1/Fc Chimera, CF (R&D Systems Cat#3647-TK) (human, UniProt P46531 19-526); test: ECL multispot (MSD), 20 nM Fab;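 also: purified Fab binding to antigens on multispot plates, read by electrochemiluminescence with a TAG-labelled detection antibody, 1 h Fab incubation at 20 °C, signal expressed relative to each well's blank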
T3 construct: Bought recombinant protein; Fc part of the bought chimera not given

[2] = molecular target: T1, rHuman Erythropoietin R/Fc Chimera, CF …; test: ECL multispot (MSD), 20 nM Fab;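 also: purified Fab binding to antigens on multispot plates, read by electrochemiluminescence with a TAG-labelled detection antibody, 1 h Fab incubation at 20 °C, signal expressed relative to each well's blank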
[3] = molecular target: T4, Recombinant Human DLL4 (R&D Systems Cat#1506-D4/CF) (human, UniProt Q9NR61 27-524); test: ECL multispot (MSD), 20 nM Fab;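 also: purified Fab binding to antigens on multispot plates, read by electrochemiluminescence with a TAG-labelled detection antibody, 1 h Fab incubation at 20 °C, signal expressed relative to each well's blank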
T4 construct: Bought recombinant protein; also called delta-like protein 4; rHuman DLL4

[4] = molecular target: T5, rHuman ErbB2/Fc Chimera, CF (R&D Systems Cat#1129-ER) (human, UniProt P04626 23-652); test: ECL multispot (MSD), 20 nM Fab;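 also: purified Fab binding to antigens on multispot plates, read by electrochemiluminescence with a TAG-labelled detection antibody, 1 h Fab incubation at 20 °C, signal expressed relative to each well's blank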
T5 construct: Bought recombinant protein; also called human epidermal growth factor 2 receptor; Fc part of the bought chimera not given

[5] = molecular target: T6, rHuman P-Cadherin/Fc Chimera, CF (R&D Systems Cat#861-PC) (human, UniProt P22223 108-654); test: ECL multispot (MSD), 20 nM Fab
T6 construct: Bought recombinant protein; Fc part of the bought chimera not given

[6] = molecular target: T7, rHuman IGF-1 sR, (IGF-1 sR), CF (R&D Systems Cat#391-GR) (human, UniProt P08069 31-932); test: ECL multispot (MSD), 20 nM Fab
T7 construct: Bought recombinant soluble receptor; also called insulin-like growth factor-1 soluble receptor

[7] = molecular target: T8, rHuman EGF R/Fc Chimera, CF (R&D Systems Cat#344-ER) (human, UniProt P00533 25-645); test: ECL multispot (MSD), 20 nM Fab
T8 construct: Bought recombinant protein; also called epidermal growth factor receptor; Fc part of the bought chimera not given

[8] = molecular target: T9, rHuman CD44/Fc Chimera, CF (R&D Systems Cat#3660-CD) (human, UniProt P16070 21-220); test: ECL multispot (MSD), 20 nM Fab
T9 construct: Bought recombinant protein; Fc part of the bought chimera not given

[9] = molecular target: T10, rHuman CD44/Fc Chimera, CF (R&D Systems Cat#3660-CD) (human, UniProt P16070 21-220); test: ECL multispot (MSD) binding assay, antigen spotted on plate, Fab 0.04 uM;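 also: purified Fab incubated 1 h at 20 °C on antigen spots, detected via TAG-labelled antibody, ECL read against each well's blank, with signal-to-blank of at least 4 scored as binder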
T10 construct: Bought recombinant protein; Fc part of the bought chimera not given

[10] = molecular target: T11, Recombinant Human DLL4 (R&D Systems Cat#1506-D4/CF) (human, UniProt Q9NR61 27-524); test: as above
T11 construct: Bought recombinant protein; also called delta-like protein 4; rHuman DLL4

[11] = molecular target: T12, rHuman P-Cadherin/Fc Chimera, CF (R&D Systems Cat#861-PC) (human, UniProt P22223 108-654); test: as above
T12 construct: Bought recombinant protein; Fc part of the bought chimera not given

[12] = molecular target: T2, rHuman Erythropoietin R/Fc Chimera, CF …; test: as above
[13] = molecular target: T13, Recombinant Human DLL4 (R&D Systems Cat#1506-D4/CF) (human, UniProt Q9NR61 27-524); test: ELISA, DLL4 coated on plate, Fab at 100 nM, absorbance at 450 nm
T13 construct: also called delta-like protein 4; rHuman DLL4

| Binder | ECL signal ratio (column head gives no unit) [1] | ECL signal ratio (column head gives no unit) [2] | ECL signal ratio (column head gives no unit) [3] | ECL signal ratio (column head gives no unit) [4] | ECL signal ratio (column head gives no unit) [5] | ECL signal ratio (column head gives no unit) [6] | ECL signal ratio (column head gives no unit) [7] | ECL signal ratio (column head gives no unit) [8] | ECL signal [9] | ECL signal [10] | ECL signal [11] | ECL signal [12] | ELISA Signal-blank (100 nM Fab) [13] |
| --- | --- | --- | --- | --- | --- | --- | --- | --- | --- | --- | --- | --- | --- |
| Fab VH3-23_IGHD2-21*01>3_IGHJ6*01 H100E/S108P/Y113G (EPG) Y109D & V2-13_IGLJ2*01 (Fab, V domains shown, Fab; NNK mutant of the EPG heavy chain; CH1 (tags) and lambda CL come from the vectors) VH: not shown VL: SSELTQDPAVSVALGQTVRITCQGDSLRSYYASWYQQKPGQAPVLVIYGKNNRPSGIPDRFSGSSSGNTASLTITGAQAEDEADYYCNSRDSSGNHLVVFGGGTKLTVL | 1.3 | 2 | 1.4 | 1.3 | 1.8 | 1.4 | 1.4 | 1 | – | – | – | – | – |
| Fab VH3-23_IGHD2-21*01>3_IGHJ6*01 H100E/S108P/Y113G (EPG) Y109L & V2-13_IGLJ2*01 (Fab, V domains shown, Fab; NNK mutant of the EPG heavy chain; CH1 (tags) and lambda CL come from the vectors) VH: not shown VL: SSELTQDPAVSVALGQTVRITCQGDSLRSYYASWYQQKPGQAPVLVIYGKNNRPSGIPDRFSGSSSGNTASLTITGAQAEDEADYYCNSRDSSGNHLVVFGGGTKLTVL | 1.9 | 22.1 | 2 | – | 4 | 1.7 | – | 1.6 | – | – | – | – | – |
| Fab VH3-23_IGHD2-21*01>3_IGHJ6*01 H100E/S108P/Y113G (EPG) Y109H & V2-13_IGLJ2*01 (Fab, V domains shown, Fab; NNK mutant of the EPG heavy chain; CH1 (tags) and lambda CL come from the vectors) VH: not shown VL: SSELTQDPAVSVALGQTVRITCQGDSLRSYYASWYQQKPGQAPVLVIYGKNNRPSGIPDRFSGSSSGNTASLTITGAQAEDEADYYCNSRDSSGNHLVVFGGGTKLTVL | 1.2 | 18.3 | 1.4 | 1.7 | 3.9 | 1.2 | 1.4 | 1.1 | – | – | – | – | – |

Next, values leading:

| ECL signal ratio (column head gives no unit) [1] | ECL signal ratio (column head gives no unit) [2] | ECL signal ratio (column head gives no unit) [3] | ECL signal ratio (column head gives no unit) [4] | ECL signal ratio (column head gives no unit) [5] | ECL signal ratio (column head gives no unit) [6] | ECL signal ratio (column head gives no unit) [7] | ECL signal ratio (column head gives no unit) [8] | ECL signal [9] | ECL signal [10] | ECL signal [11] | ECL signal [12] | ELISA Signal-blank (100 nM Fab) [13] | Binder |
| --- | --- | --- | --- | --- | --- | --- | --- | --- | --- | --- | --- | --- | --- |
| 1.7 | 6 | 1.5 | 1.7 | 2.1 | 1.3 | 1.4 | 1.1 | – | – | – | – | – | Fab VH3-23_IGHD2-21*01>3_IGHJ6*01 H100E/S108P/Y113G (EPG) Y109T & V2-13_IGLJ2*01 (Fab, V domains shown, Fab; NNK mutant of the EPG heavy chain; CH1 (tags) and lambda CL come from the vectors) VH: not shown VL: SSELTQDPAVSVALGQTVRITCQGDSLRSYYASWYQQKPGQAPVLVIYGKNNRPSGIPDRFSGSSSGNTASLTITGAQAEDEADYYCNSRDSSGNHLVVFGGGTKLTVL |
| 1.3 | 3.1 | 1.2 | 1.3 | 2.2 | 1.1 | 1.7 | 1.3 | – | – | – | – | – | Fab VH3-23_IGHD2-21*01>3_IGHJ6*01 H100E/S108P/Y113G (EPG) Y109Q & V2-13_IGLJ2*01 (Fab, V domains shown, Fab; NNK mutant of the EPG heavy chain; CH1 (tags) and lambda CL come from the vectors) VH: not shown VL: SSELTQDPAVSVALGQTVRITCQGDSLRSYYASWYQQKPGQAPVLVIYGKNNRPSGIPDRFSGSSSGNTASLTITGAQAEDEADYYCNSRDSSGNHLVVFGGGTKLTVL |
| – | – | – | – | – | – | – | – | 657 | 10400 | 345 | 637 | – | Fab VH5-51_IGHD5-18*01>3_IGHJ4*01 G100K/G104T (H:KT) & V3-4_IGLJ1*01 G95A (Fab, V domains shown, Fab; Expressed from Plasmid A (CH1, His6 and Flag tags) and Plasmid E (lambda CL); also called KT & G95A) VH: EVQLVQSGAEVKKPGESLKISCKGSGYSFTSYWIGWVRQMPGKGLEWMGIIYPGDSDTRYSPSFQGQVTISADKSISTAYLQWSSLKASDTAMYYCARRKYSYTYDYFDYWGQGTLVTVSS VL: QTVVTQEPSFSVSPGGTVTLTCGLSSGSVSTSYYPSWYQQTPGQAPRTLIYSTNTRSSGVPDRFSGSILGNKAALTITGAQADDESDYYCVLYMASGISYVFGTGTKVTVL |
| – | – | – | – | – | – | – | – | – | – | – | – | 0.439 | Fab VH5-51_IGHD5-18*01>3_IGHJ4*01 G100K/G104T G24T/S28R/G35V (H:KT TRV) & V3-4_IGLJ1*01 S96E (Fab, V domains shown, Tested as Fab expressed in E. coli) VH: EVQLVQSGAEVKKPGESLKISCKTSGYRFTSYWIVWVRQMPGKGLEWMGIIYPGDSDTRYSPSFQGQVTISADKSISTAYLQWSSLKASDTAMYYCARRKYSYTYDYFDYWGQGTLVTVSS VL: QTVVTQEPSFSVSPGGTVTLTCGLSSGSVSTSYYPSWYQQTPGQAPRTLIYSTNTRSSGVPDRFSGSILGNKAALTITGAQADDESDYYCVLYMGEGISYVFGTGTKVTVL |
